T1: IL-12p40 (human, UniProt P29460 23-328)
T1 construct: also called IL-12p40 subunit
T1 sequence: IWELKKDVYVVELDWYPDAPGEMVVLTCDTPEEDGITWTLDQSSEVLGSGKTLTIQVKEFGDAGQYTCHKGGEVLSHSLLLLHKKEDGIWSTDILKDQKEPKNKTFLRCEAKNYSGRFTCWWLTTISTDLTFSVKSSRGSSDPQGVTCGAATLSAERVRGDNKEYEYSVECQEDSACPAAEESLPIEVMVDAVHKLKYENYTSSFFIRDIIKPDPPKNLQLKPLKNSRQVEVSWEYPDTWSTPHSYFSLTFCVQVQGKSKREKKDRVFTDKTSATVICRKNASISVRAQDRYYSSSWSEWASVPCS

T2: Human IL-23 (human, UniProt P29460 23-328; Q9NPF7 20-189)
T2 construct: Heterodimer of IL-12p40 covalently linked to IL-23p19, purchased (Ebiosciences or RnD Systems); also called hIL-23; rhIL23
T2 sequence 1: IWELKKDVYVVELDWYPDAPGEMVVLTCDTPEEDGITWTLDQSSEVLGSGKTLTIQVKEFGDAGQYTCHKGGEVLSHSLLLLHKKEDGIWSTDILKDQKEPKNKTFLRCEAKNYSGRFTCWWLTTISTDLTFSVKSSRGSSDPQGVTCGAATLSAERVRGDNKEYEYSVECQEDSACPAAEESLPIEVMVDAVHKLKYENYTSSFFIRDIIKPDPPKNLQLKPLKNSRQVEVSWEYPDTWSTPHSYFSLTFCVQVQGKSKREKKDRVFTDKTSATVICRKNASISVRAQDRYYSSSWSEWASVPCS
T2 sequence 2: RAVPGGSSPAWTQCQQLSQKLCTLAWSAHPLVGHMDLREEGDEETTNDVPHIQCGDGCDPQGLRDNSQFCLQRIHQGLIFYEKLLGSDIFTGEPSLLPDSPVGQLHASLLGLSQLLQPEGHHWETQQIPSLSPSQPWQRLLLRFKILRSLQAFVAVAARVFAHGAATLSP

T3: IL-23p19 (human, UniProt Q9NPF7 20-189)
T3 construct: also called IL-23p19 subunit
T3 sequence: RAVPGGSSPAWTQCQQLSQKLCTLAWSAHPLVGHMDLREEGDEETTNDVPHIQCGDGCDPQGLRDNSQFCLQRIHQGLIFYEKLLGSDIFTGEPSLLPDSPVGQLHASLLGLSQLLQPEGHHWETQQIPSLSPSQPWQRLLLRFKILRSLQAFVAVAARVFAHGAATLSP

T4: IL-23 (HEK293E-derived) (human, UniProt P29460 23-328; Q9NPF7 20-189)
T4 sequence 1: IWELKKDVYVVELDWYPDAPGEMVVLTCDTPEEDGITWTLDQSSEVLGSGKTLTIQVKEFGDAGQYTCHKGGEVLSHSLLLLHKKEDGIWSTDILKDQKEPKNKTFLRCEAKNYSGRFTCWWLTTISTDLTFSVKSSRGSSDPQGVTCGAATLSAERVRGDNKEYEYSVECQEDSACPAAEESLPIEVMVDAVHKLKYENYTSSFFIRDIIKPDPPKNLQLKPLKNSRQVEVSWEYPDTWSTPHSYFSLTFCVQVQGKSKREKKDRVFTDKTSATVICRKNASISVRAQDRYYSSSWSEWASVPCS
T4 sequence 2: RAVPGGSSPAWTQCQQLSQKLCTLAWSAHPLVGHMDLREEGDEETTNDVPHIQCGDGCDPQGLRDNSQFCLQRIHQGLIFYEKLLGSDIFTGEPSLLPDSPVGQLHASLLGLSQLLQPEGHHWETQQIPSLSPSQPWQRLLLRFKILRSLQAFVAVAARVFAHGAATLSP

T5: FLAG-tagged IL-23p19 (human, UniProt Q9NPF7 20-189)
T5 sequence: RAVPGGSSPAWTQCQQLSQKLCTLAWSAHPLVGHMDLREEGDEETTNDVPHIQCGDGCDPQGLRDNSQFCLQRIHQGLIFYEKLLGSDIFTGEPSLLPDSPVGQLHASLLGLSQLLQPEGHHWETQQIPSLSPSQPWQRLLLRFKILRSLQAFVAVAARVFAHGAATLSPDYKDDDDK

T6: FLAG-tagged IL-12p40 (human, UniProt P29460 23-328)
T6 sequence: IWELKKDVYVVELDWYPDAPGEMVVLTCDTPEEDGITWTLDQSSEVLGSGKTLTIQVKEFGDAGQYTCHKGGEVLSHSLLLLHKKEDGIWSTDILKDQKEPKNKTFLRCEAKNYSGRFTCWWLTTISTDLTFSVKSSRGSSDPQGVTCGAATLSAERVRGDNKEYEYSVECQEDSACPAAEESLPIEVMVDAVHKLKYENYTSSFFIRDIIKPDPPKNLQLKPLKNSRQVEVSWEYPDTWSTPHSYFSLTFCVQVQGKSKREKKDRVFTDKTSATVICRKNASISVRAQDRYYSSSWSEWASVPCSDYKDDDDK


How the values were obtained:
[1] = target: T1, IL-12p40; assay: ELISA, coated antigen IL-12p40, mOD at 450 nm; blank = coating antigen omitted [panel 8-22]
[2] = target: T2, Human IL-23; assay: SPR (Biacore 3000), antibody captured on Protein A, IL-23 as analyte, 1:1 Langmuir fit
Method: Using a Biacore 3000, Protein A (Pierce) was immobilized on a CM5 chip using amine coupling chemistry to give 3000 Response Units (RU). Antibody was captured on the surface of the chip in flow cell 2 or 4 with a control surface in flow cell 1 or 3. Human IL-23 was then passed over both flow cells and the response units measured. The surface was then regenerated with 10 mM glycine pH 2.5. For a kinetic run this process was repeated with 5 dilutions of IL-23. Data was double referenced using an injection of running buffer before being fitted using a 1:1 Langmuir equation to determine ka, kd and KD.

[3] = target: T3, IL-23p19; assay: ELISA, coated antigen IL-23p19, mOD at 450 nm; blank = coating antigen omitted [panel 8-22]
[4] = target: T4, IL-23 (HEK293E-derived); assay: SPR (Biacore), antibody supernatant captured on Protein A, IL-23 at 5 ug/ml as analyte
Method: As a result of the humanization processes 22 humanized antibodies were produced and tested for their ability to bind human IL-23 (Table 4). Briefly, 2 mL transfections of the 22 humanized antibodies were screened for antibody expression level and binding activity via SPR. Protein A was immobilized onto FC1 and FC2 (or alternatively FC3 and FC4) of a CM5 research grade sensor chip using amine coupling, giving approximately 3000 RU. FC1 was used as a blank throughout the experiments. The experiments were run in HBS-P buffer (SPR). Antibody-containing cell culture supernatants were diluted in 10× HBS-P buffer at a ratio of 9:1. The diluted antibody was injected over FC2 at a flow rate of 20 μl/min. IL-23 (HEK293E-derived) was passed over the surface of FC1 and FC2 at a concentrations of 5 μg/ml as a kinetic injection with 5 min dissociation time across both
FC. Regeneration of the surface was performed using 10 mM Glycine, pH 1.5. The sensorgram data from FC2 were subtracted from FC1 and a buffer only control. […] The Sequence IDs of the variable heavy and light chains for each antibody are given in the Table 4 along with kd (off-rates) of selected tested antibodies.

[5] = target: T3, IL-23p19; assay: ELISA, coated antigen IL-23p19, mOD at 450 nm; blank = coating antigen omitted [panel 6-22]
[6] = target: T1, IL-12p40; assay: ELISA, coated antigen IL-12p40, mOD at 450 nm; blank = coating antigen omitted [panel 6-22]
[7] = target: T1, IL-12p40; assay: ELISA, coated antigen IL-12p40, mOD at 450 nm; blank = coating antigen omitted [panel 20-4]
[8] = target: T3, IL-23p19; assay: ELISA, coated antigen IL-23p19, mOD at 450 nm; blank = coating antigen omitted [panel 20-4]
[9] = target: T5, FLAG-tagged IL-23p19; assay: ELISA, hybridoma supernatant on antigen captured by anti-FLAG M2
Method: (§1) Anti-FLAG M2 antibody (Sigma-Aldrich) was coated onto ELISA plates overnight. These plates were then used to capture individually: FLAG-tagged IL-23p19, FLAG-tagged IL-12p40 and FLAG-tagged IL-23. Hybridoma supernatant from the clones was added and hybridomas that were positive for binding to IL-23 but not IL-12p40 or IL-23p19 were expanded.

[10] = target: T6, FLAG-tagged IL-12p40; assay: as above
Method: as §1

Row | Binder | binding result [1] | Kd [2] | koff [2] | kon [2] | binding result [3] | koff [4] | binding result [5] | binding result [6] | binding result [7] | binding result [8] | binding result [9] | binding result [10]
1 | 8-22 (antibody, human IgG1, kappa, V domains shown, Humanized form of E11E7; also called humanized antibody 8-22) VH: QVQLQESGPGLVKPSETLSLTCTVSGFSLISYNVHWIRQPPGKGLEWIGVIWTGGSTDYNPSLKSRVTISRDTSKNQFSLKLSSVTAADTAVYYCARDKYGLFPGYFDYWGQGTLVTVSS VL: DIVMTQSPDSLAVSLGERATINCKPSQSLLSSGNRKNYLAWYQQKPGQPPKLLIYYASTRQSGVPDRFSGSGSGTDFTLTISSLQAEDVAVYYCLQHFNYPWTFGQGTKLEIKR | no binding (tested: 10 ug/mL) | 0.421 nM | 0.000197 s⁻¹ | 468000 M⁻¹ s⁻¹ | no binding (tested: 10 ug/mL) | 0.000117 s⁻¹ | – | – | – | – | – | –
2 | 6-22 (antibody, human IgG1, kappa, V domains shown, Humanized form of E11E7; also called humanized antibody 6-22) VH: QVQLQESGPGLVKPSETLSLTCTVSGFSISSYNVHWIRQPPGKGLEWIGVIWTGGSTDYNPSLKSRVTISRDTSKNQFSLKLSSVTAADTAVYYCARDKYGLFPGYFDYWGQGTLVTVSS VL: DIVMTQSPDSLAVSLGERATINCKPSQSLLSSGNRKNYLAWYQQKPGQPPKLLIYYASTRQSGVPDRFSGSGSGTDFTLTISSLQAEDVAVYYCLQHFNYPWTFGQGTKLEIKR | – | 0.86 nM | 0.0004 s⁻¹ | 465000 M⁻¹ s⁻¹ | – | 0.000241 s⁻¹ | no binding (tested: 10 ug/mL) | no binding (tested: 10 ug/mL) | – | – | – | –
3 | 20-4 (antibody, human IgG1, kappa, V domains shown, Humanized form of E11E7; also called humanized antibody 20-4) VH: EVQLQQWGAGLLKPSETLSLTCAVYGFSLISYNVHWIRQPPGKGLEWIGVIWTGGSTDYNSVLKSRVTISVDTSKNQFSLKLSSVTAADTAVYYCARDKYGLFPGYFDYWGQGTLVTVSS VL: EIVLTQSPATLSLSPGERATLSCKPSQSLLSSGNRKNYLAWYQQKPGQAPRLLIYYASTRQSGIPDRFSGSGSGTDFTLTISRLEPEDFAVYYCLQHFNYPWTFGGGTKVEIKR | – | 0.47 nM | 0.000202 s⁻¹ | 429000 M⁻¹ s⁻¹ | – | 0.000231 s⁻¹ | – | – | no binding (tested: 10 ug/mL) | no binding (tested: 10 ug/mL) | – | –
4 | E11E7 (antibody, V domains shown, Rat monoclonal antibody from a hybridoma; also called rat antibody E11E7) VH: QVQLKESGPGLVQPSQTLSLTCTVSGFSLISYNVHWVRQPRGKGLEWMGVIWTGGSTDYNSVLKSRLSISRDTSKSQVFLKMHSLQTEDIGTYYCARDKYGLFPGYFDYWGQGVMVTVSS VL: DIVMTQSPFSLAVSEGEMVTINCKPSQSLLSSGNRKNYLAWYQQKPGQSPKLLIYYASTRQSGVPDRFIGSGSGTDFTLTISDVQAEDLADYYCLQHFNYPWTFGGGTKLELKR | – | – | – | – | – | – | – | – | – | – | no binding | no binding

Reference: patent US20130115166A1 (CEPHALON AUSTRALIA, published 2013)
